Measurements from the supplement of paper PMC12636428.

Tested on: Saccharomyces cerevisiae
Assay: transcriptional activation domain activity (GFP:mCherry ratio, weighted mean of sorted bins, harmonized to initial dataset scale) (arbitrary fluorescence ratio units); higher = stronger transcriptional activation
Conditions: beta-estradiol 1 µM; induction time 4 h
How it was run: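 Barcoded protein tiles fused to an estradiol-inducible synthetic transcription factor were integrated at the yeast URA3 locus, in diploids carrying a GFP reporter. Cultures were diluted 1:5 into SC with 1 uM beta-estradiol, held 4 hours at 30 °C, sorted into 8 bins by GFP:mCherry ratio, and barcodes sequenced. Tiles under 50 reads were discarded. Activation activity is the read-weighted mean of bin median fluorescence, averaged across barcodes, then linearly mapped onto the initial dataset scale.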

Row | Sequence | transcriptional activation domain activity
1 | MSPRAFFPPWFDFVHAFLVYALVARRLRLLFLPTHLAMHCTHLSLSLTLLFLL | 60500
2 | MSPSGAVPSTAQVVPGACVNIVLKADQRTGRQVSGTVRDVLTRGDHHRGIKVR | 41300
3 | MSPSSAVFFFFFFCIALFDSVWLVSFFMVLFFLFDSSLYSLLFFSCLFFFIHS | 50000
4 | MSQCLGTGYPIVCLVLICVRHGAMLDIREKAVEMIFTILLTSTVKVAKKLDKH | 49500
5 | MSQFDFGLLFGQPFFLCSLVLFGLGWFITFIATCTIGSSPHLIWVEIFYNLFL | 58500
6 | MSQSFLFCPFQCLSLYLFPFCLCFCFPTLAFLSRFSYFILVLFSFLPLLAFVA | 18500
7 | MSRCNSSMFMSMFDSLGLFLFVIFIFLFFELHSFWWDLFSLFFVFVWFNFSIS | 41400
8 | MSRKIYCTPAFSTIHLLYLHNFFLIPIYYLQTSLRNILSKLSFCLILSILLLP | 52900
9 | MSRLSIYVALLLLESICICWRGWIAPRHVAMESVQINFKTGRFLVYFMFPIKA | 32000
10 | MSRPSGCRSATSTGRATCSGCRRSSSPARPPCASRRARCSCGCVCASPTSTRR | 12100
11 | MSRQPVRAIFLYDILLFFLSGRSIDFVLIFSTWPFFFSFFLSFSLPPYFYFIL | 71500
12 | MSRVLPEKLPLHLQAACLPQRDLLTALPVVALRCYTDGPQLLRGLVCCLCDMW | 61600
13 | MSRVRLAPEGHMFFFVLIVFIFCFFCLFLFLAGDLKGGWLFFLRFGMGWVFLG | 21600
14 | MSRVYNLFLKAFRYKLPSLYQHIHVILNLPPSMYLEAMFLTLFTLHCPIDVAS | 53400
15 | MSSAASSTGSPRPKRRRRRPARSCEQCRRRKIRCDMGQPCNGCVRARVSMECS | 38300
16 | MSSDDDSAPRTKRGGKPTTKKQQKRAIARACDRCRQKKVKCDGASLAIGAVCQ | 40600
17 | MSSEKSSRASKTPTPTPAPPGDHRKRRRNRTTQSCLNCHASKRMCDRKRPACQ | 52300
18 | MSSGFSWSTCSFFFFFFFFLLLLLLLFFWFFLFGLSWRDSLVFFPFFFFLSLF | 17800
19 | MSSHDGYRTRRTPQACVACRRRKTKCDGARPRCRHCASRHRQCVWPDVAEGAS | 39900
20 | MSSLFFLRSPCFYLYLYHYLVSFLIFMAFCLVCCLPLLFHFWVFCLLLCFRIY | 63600
21 | MSSLFFSFQAVQFWFLGFLGLSWFRLVSTSYNIVDFLSFLSVHHHVLSWLGIP | 63500

Row | Sequence | transcriptional activation domain activity
22 | MSSLPLFPVLSSSLCFPLPPSLPLSSPPSVSPFPPFSLFPPLPLFSPFPPSIS | 38900
23 | MSSLYFFDLMISWLLCFLAFRGDLFYMVFFFLYHFFFLLCGFWFFFCTDIHFY | 59900
24 | MSSMHKLVTIFTGQGRVLSFFSLCVLRGLYYYSLLLRYLYFTLLVFFLSLFPF | 49100
25 | MSSNFFGASNNAGQGSGTGASAPLFGAPKPADGGAAPAVGGLFGAKPAASGTG | 27300
26 | MSSNYENQAQQESDQGSSSKSQKSRHRASVACATCRERRIRCVVPAGEASCAQ | 43100
27 | MSSPEVNSSQPASSPRKARRYGFACASCKARKVKCSGDQPVCRACRRANESCV | 24300
28 | MSSPKRITVLISGSGTNLQALMDAAGSSRLPNAQITHVISSRSAVKGLERAST | 53800
29 | MSSPNEKMDVDRASPDRRSKSSRNHSTETHRTKRSHRSRSRGGERDKERRDRR | 34300
30 | MSSPTSSLFFVSPPVGCYRYLLFFFFSSFWLLFVFLRSVPFGPTLLLFFFYFN | 42400
31 | MSSSAASGPMGESSKRKAGSEAVAGSSSSSSISRDGKKAKLKPQDEATATGAA | 31400
32 | MSSSDPLRKRDFEDSTRRLACDRCRGQKLRCERITGKTTSPCRRCVKARARCT | 35300
33 | MSSSEDEPRPRKARSKLSPPASPDSRAQSAPAVPSPVKLVRAKPRARAKAASL | 42700
34 | MSSSEPLTEQTAALSVAEGDADGNVPIGPDGKPLSKSAIKKLQKEKEKAEKAA | 39500
35 | MSSSLPSESPCQEPTKRRRKVKTGCRTCKIRRVKCDEGRPACHRCVSTGRVCD | 54000
36 | MSSSPTTGTSQDVQNRTVFTSRRRTAVACTNCRRRKLRCIPARVEEPATGPCA | 35800
37 | MSSTKRPAEEEEPVIHEEDEPGKPDSAAAPAPKRRGRPPGSKNKKTIAAEAAA | 32700
38 | MSSTPNCARQQPNRSESARNRTKDNCAACREKRLKCDKDGGRKTCSSDSQPSS | 37400
39 | MSSVAAAESKPEKKQKKDKSSKSEKKRLREDDAADAERKHKKSKSLASSEVAA | 15100
40 | MSSWDGTQGSSSNGQVRKRRRIALACDSCRARKSRCDGRRPQCSSCAGQGTKC | 43400
41 | MSSWVYKYQLMFVFVSKVESGGRIWNVIINRLLICVLLMQMLMILTMGLQYRF | 49000
42 | MSTAAVNEVTETLAATAISNPTNGAAANEATAASADEGRRLYIGNLAYATTEG | 36000

Row | Sequence | transcriptional activation domain activity
43 | MSTAGHSRQPDHATVPARSFGGCSTCRRRHIKCDEGRPSCSACRDSGLACGGY | 53000
44 | MSTEEQADGAPSSASDAGLKIWSCVTCRRRKVRCDRRDPCSNCVRAAIDCHYP | 30100
45 | MSTEVKAAHAGKARQKAWKPKVKTGCVTCRNRRVKCDEAKPDCRRCVAAGRKC | 10800
46 | MSTGVSSFLQYVFLFTPYFIFSYFLAVDCWCFSLPLFCLAIPSIFLFLFLFLL | 24900
47 | MSTLHWNMIFLVFFFWVVDVLFAWIMEVGMMVGVHVAYAYGDCGGPVLFMVPF | 71700
48 | MSTNERKKQRFVKSIHKEKKNTACCSSTNVIGTSKLSSPVIAVVVVVVVVCWG | 45100
49 | MSTNSPESTGDHTDTERKDMPRKRSKVSRACDACRRKKVRCDAEFLTTLQKVT | 79400
50 | MSTPFLANLLLIIWPTYYLLALSLHRALFQCTLSDFFSFFFFFFFFLFFLPFF | 52800
51 | MSTPKVVASATRQINAVVVSAGLMQKTVKARVGVQKWNRHIKKHFNRSTNVLV | 53100
52 | MSTQGPAKRRGAQATDKPVKRTRVSRACDQCRIAREKCDGAQPTCSTCSTSRR | 36700
53 | MSTSSIVMCSLFLIVRTSTFLLTFIFPNSLPLMGYRLRVFFVWYVDFYGWIFT | 57600
54 | MSTVPRLRLHLHLHLHLHLRLHLHLQLSTPKPTEDGAEHGTERGTERGTERGT | 49700
55 | MSTWLLRVFFSTCLYIIIWFFFHSFPFLSFFLPCLCCMFFFLACCLVSLSRVL | 35200
56 | MSVFILFVGCFYCMVCLFSPSYMWFFCGVISILFLIFPFLHDFQLYFFFGGGH | 41700
57 | MSVLYIEDTFPSCFIKFKELVVCSRLCMMFPFQYQFASLLLYLILLLAYHLFL | 54300
58 | MSVSSPEDVTSEASGPAATAPAHEPLACVNCRSRKLKCDRQKPVCSRCAKAGG | 46300
59 | MSVVKEENPDTPGGTTVQDVDNRLRQLIQACSPFHMLKNHNLLVLYLLIVPSA | 53700
60 | MSVYLFCGLLIFLGCGGSGWRYGFLSFFRLLLGVYVSFRYQHLIYTAWLMWAY | 69200
61 | MSWIVWSGKHIHMSCNFIFIICPNNMKYMLSVFWRWFYKRSVIWKVWIRLFFI | 47600
